According to the supplement of paper PMC12042874:
± gives the uncertainty stated by the source.

Assay: amyloid nucleation score (Sup35N fusion, yeast selection) (log enrichment); library NNK1; higher = more nucleation; inactive = no reads after selection
How it was run: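 After 24 hours of induction with 100 μM copper sulfate, psi-negative yeast expressing peptides of 20 random codons fused to Sup35N were grown for 7 days at 30°C on medium lacking adenine and uracil. Input and output plasmid inserts were sequenced with Illumina, and sequences with under 100 input reads were discarded. Scores for nucleation are the DiMSum log enrichment of output over input reads, centred on the mode score of non-aggregating sequences.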

Substance | amyloid nucleation score
IWWFSTFVRRRRAAVKVHKA | inactive
KSAEIKEQCTTWFMYTMLGA | -0.785 ± 0.44
GYGWFLCTIHVQKLVCWPTL | -0.114 ± 1.1
DPVVFDSWELLKQWISCKRC | 0.226 ± 1.6
PDMCQERNYCELYPCKARAT | -0.612 ± 0.41
SKYRLNAMWSACRQRWANIG | -0.995 ± 1.7
YFVQGNMNLSHCTCWCGNRT | 7.589 ± 0.046
TCRNFRHG | -0.542 ± 0.57
RDIWMATYRWVRVYSLMWIG | 1.01 ± 0.48
TYRCR | 0.624 ± 0.53
LLSLFRYN | 0.537 ± 1.1
SIGPFKTYCTAAWP | -0.502 ± 0.36
WCISTIGWRTDGCD | inactive
FRNLTVGAWRPMPGERMPIG | -0.182 ± 0.42
TSFLV | -0.028 ± 0.91
HSIERTWPVRRPKCESKLKF | -0.91 ± 1.3
VFYFELKG | -0.183 ± 0.28
FYFSASATIL | -0.093 ± 0.81
VFYFYYFDEMCVSSMNRLKL | -0.36 ± 0.27
FSYCEWRDKCCERWSFLDNQ | 1.11 ± 0.49
FKCLARFWYADYLRFVFARQ | 0.297 ± 0.32
DKTMVGTPGLTHMVVDGVE | 0.12 ± 0.84
GVFMKYQ | 0.18 ± 1.2
VHTGLVSEIRRDKREGAYPE | 0.128 ± 0.99
LCLILVGSY | 0.062 ± 0.79

Substance | amyloid nucleation score
YLGWDRNRDYEWAIDASRAN | inactive
KWLTFVMDMSDLCYSSFNVN | inactive
KSLVKYKWNLTFILY | inactive
GGFFICQGDTRVV | 0.222 ± 0.58
FSLCDSKSKWLLYCSGSFNL | 2.69 ± 0.14
YSNSGMGNV | 0.568 ± 0.21
NPSQIELRAFRTCMMYCGS | inactive
VDKKRAISCKSFRLYGRFSL | -0.647 ± 0.32
RLRPTTAASSLCSVLVPR | -0.097 ± 1.1
TYPYMCNHFLVLELNVIVAL | 0.363 ± 0.58
LYNRIANFGPGYINLWVI | 6.375 ± 0.061
RIGTTWMMCIPWVLNCNV | 6.945 ± 0.051
WTAFGRFAVQTFFEKHM | -0.275 ± 0.24
VLLCNFRSRVWRYRCFKAFS | 0.93 ± 0.19
SGPGDKVAISMNIY | 5.16 ± 0.087
WRGISVQAVRRLCAKNKSSR | 1.25 ± 0.85
WWDAEFGGKSRAS | -0.012 ± 0.57
MWYLMRTLTLIRFFVSPVGS | 0.154 ± 0.31
IECMAMCHSVRSCCGSIYDC | -0.422 ± 0.38
LKHRRSWYLTYIDCAGM | -0.294 ± 0.43
SHVVCVCLRDLPRIFVFVEK | 6.63 ± 0.07
QMCLFKVNLVVTISI | inactive
VGNRCGVL | 0.05 ± 0.33
CHNVVGSVKRIRSKFMKCFV | inactive
LFGGFMFLGKWDQLHGHNEC | 0.799 ± 0.49

Substance | amyloid nucleation score
IWLLGSVHRLDSLVTDCKTS | 1.08 ± 0.63
LSKKFWRFVWARLSEELIER | 0.811 ± 0.51
VISIFVEF | 3.69 ± 0.12
QFVSLKFRVGLATS | 0.045 ± 0.95
NYFFAAACKKVVQGQPCSF | 1.59 ± 0.29
WTMLDMFLFS | -0.872 ± 0.42
WFSRTPWYFVFRCNDDMDCS | inactive
CFSMILVYYVLFARFVSWSM | 0.15 ± 0.41
SRLSLT | 0.179 ± 0.82
RAGIFKEYCSFATVKYVKDN | -1.04 ± 0.39
CFFEILLSMISTMPRNVKLR | -0.28 ± 0.41
SFGTQPGQISVN | -0.856 ± 2.4
IIGLVWSVL | 0.993 ± 0.58
ICQYPPLEVLARYGQIQDIM | 0.207 ± 0.3
VVVSNTLECSTSRVNRKVRT | -0.97 ± 0.72
VQFGQIIEWVFHMLVSTTTI | -0.022 ± 0.36
SGCCVASFYHRDSILSCEKA | 0.446 ± 0.58
EMSRGHLHTSFRVYIQMLGG | 4.54 ± 0.073
VLMLRSGWPQRRPHFG | -0.301 ± 0.76
RKVSANRFSYWRMGKGMYPV | 0.042 ± 0.34
SWNNNAFAGMIPSNVVCCTY | 1.97 ± 0.26
ISRPSSSGRLHVVMTSSNAR | 0.421 ± 0.39
DEWSNKHCSQNTALCSLWAT | 1.43 ± 0.2
RIMGFRTFEHWIININYLLL | -0.094 ± 0.41
GKNWVRPRPGLVTNTKEYES | -0.46 ± 0.76

Substance | amyloid nucleation score
SRLVRSSLHMGAKTRVIQL | 0.881 ± 0.26
VCMLVHLVTFAPNS | 2.61 ± 0.26
ALNGSNRIIACTIIWCVVW | 2.51 ± 0.18
CLSYI | -0.172 ± 0.27
AFNGTSAGMCKWGACTEWCV | -0.382 ± 0.28
VFRTISYRV | 0.039 ± 0.69
NSWKNADVWCNASMHGWSGW | 0.697 ± 0.72
FHRWLDMWSLRRDFIGYGLG | 0.095 ± 0.77
NLNFAAPKGGV | -0.735 ± 2.4
NFCEVYGANIN | inactive
LNMHSR | inactive
LNGRYLDVLHQVIHQNVREP | 3.01 ± 0.22
RRHPS | inactive
PDHLTIQSCDARYGFASQL | 1.78 ± 0.47
TAFFCRFPSCGGYIAYRSYV | -1 ± 1.2
DRYIREISNTATCFALLL | 4.29 ± 0.083
SLIRSMTISDNLIMWAGWTY | -0.7 ± 0.38
LIHYNNNVYTRWAWSSQQGE | 2.75 ± 0.2
SCKGQPARVTCETRFTGYER | 2.32 ± 0.49
LGLRGKKLRIINAPYTTGRN | -0.64 ± 0.98
RRATLSHAPGGPMGLEWSRW | 0.444 ± 1.2
SLRVTLTGQTDLASEFQWWL | inactive
LMYKICTLVRRLHLSRYKNM | -1.27 ± 1.7
YAFLSEYFSAK | -0.054 ± 0.24
AHCLECGMNVNGTIF | -0.81 ± 1.6

Substance | amyloid nucleation score
GVCWLKIRALPDSYWLVFL | -0.776 ± 0.74
TTCCINSLMCTDTNSCIAGV | 2.08 ± 0.6
RWVYSTRNHLKIVRNNKSEL | -2.15 ± 2.4
KPLLTQQK | -0.356 ± 0.54
WIFSAMVYDSRKLTSYDKSE | 0.543 ± 0.32
GAAQWMKNSTIGHARFIADL | 0.2 ± 0.39
LHLRTVAGSWSNIFYLAAPM | 0.433 ± 0.31
KLRRSIDTCNVYVWS | -0.593 ± 0.23
SRGLRNLSSMPNWAGLP | 0.707 ± 0.61
VFGVGGTYLFIDVEAVWGSG | 1.61 ± 0.57
WNGLYRFCVVRAQGSFDET | -0.111 ± 0.32
PSFRWIGSEMSTMFMLQVTL | 0.058 ± 0.55
PTPEANAIKGLYQRGNCVYG | -0.515 ± 1
TGYLIYSSWC | 0.146 ± 0.4
FMATNTKAMGPLRSAK | 0.224 ± 0.58
FGINVSIFTESLWLNYC | 4.52 ± 0.052
CSCVVVNCNWYG | 8.609 ± 0.071
IIEIRLNLGAVANLSTYGVM | 0.327 ± 0.39
KYFGFSVHSLLCYNRSLFLS | -0.055 ± 0.35
VRNMVFSSGRQLYMWDKLLK | 1.82 ± 0.66
LFRGT | -0.457 ± 0.27
SVGGWLSYRSDV | -0.901 ± 0.89
AGQVYRFAVSVRSSKLIVAR | 0.966 ± 0.45
PDTYRLWRWSCIFEKCCDEG | -0.194 ± 0.41
LDIDTKW | -0.204 ± 0.38

Substance | amyloid nucleation score
IKAWWMNHGRYHCLTLRVCL | 0.713 ± 0.38
SSKVERG | -0.139 ± 1.3
YNVSHLIRV | -0.959 ± 0.26
SVKGRGRGILWMLAVSECVG | -0.762 ± 0.62
LNNLVFVLLV | 3.37 ± 0.09
HSHHGSSV | 1.08 ± 0.76
RPRSDSRGTRKDNGFDDVKL | 0.438 ± 0.39
LLNFFK | 0.609 ± 1.1
WLWSQLVESCGRVRCSGGSG | 1.37 ± 0.5
GVLVKNQGLLVNAIHSMQTN | -0.797 ± 2.4
YCTLFGSWPLIVVVGG | -0.772 ± 0.77
PDSTVARVDVSPELIFCLKS | -0.708 ± 0.6
VANFET | -0.769 ± 1.1
RGSVFPCNVQVDWLRPETRA | -0.047 ± 1.1
LTLVNASSSRYEMSLFFQSI | 2.53 ± 0.12
MRFAVTD | -0.146 ± 0.23
TPGVKPYYWIRLTEIVATHS | 0.52 ± 1.2
LLVLSLINFFFKKRAFCPIT | 2.11 ± 0.6
QSGGVRVTNWRGNVTAT | 0.043 ± 0.39
YWEGWGKTRFKCNGSRSRAG | -1.01 ± 1.3
CTQGCHRVNWSVTYRVVFLA | 0.848 ± 0.42
SCVLESIQEFWS | -0.3 ± 0.24
STRGHNMTEINVWMVHNILT | -0.116 ± 1.4
HCMLGMFHWVRRQVYRSTKW | 2.34 ± 0.25
SPSSVYVINLNSNLRGNGFA | 7.08 ± 0.078

Substance | amyloid nucleation score
WGIPMVGSRGPMCTKVGFRK | 0.141 ± 0.35
IGLMALLGLTRDR | 2.17 ± 0.12
CTLILSQQFSSIPVHFILYM | 4.4 ± 0.05
GIGMRGVQHSSCEVARYWGS | 1.12 ± 0.35
RNIVRFCNRSFRILLRGSAT | inactive
SPLFPRKLQVQYKTYPYG | inactive
HVLMIRWLWWGISRACKNSR | -0.193 ± 1.6
SYNTIIGSSCN | 0.701 ± 0.69
YGGMDS | 0.132 ± 0.5
LRLNDSSLRIPEAA | -0.107 ± 0.44
LGSWARD | -0.27 ± 0.54
ILKRSCEVVL | -0.243 ± 0.47
IHKMCRAD | 0.12 ± 0.55
IAVFRYFDSYRPFTRVSVLF | inactive
TVWYYSHPS | 0.34 ± 0.48
MGGVMAVLFRIMLGVIF | inactive
RMHRTDWASIHKDGRPQRRF | 1.23 ± 0.76
HMRGLG | 6.77 ± 0.083
RFVQRKDSFFARI | 1.21 ± 0.66
QKSYMCRVGYPF | 0.501 ± 0.72
PTRLPYGTSLIWDTSHANWG | -0.706 ± 0.59
VNSNPSSGAFWI | 0.571 ± 0.87
